From patent US20180051287A1 (VITRISA THERAPEUTICS, published 2018)

Target: human complement Factor D present in C1q-depleted human serum (human, UniProt P00746 26-253)
Assay: cell-based or functional assay

Chain of human complement Factor D present in C1q-depleted human serum (P00746 26-253 limits assumed): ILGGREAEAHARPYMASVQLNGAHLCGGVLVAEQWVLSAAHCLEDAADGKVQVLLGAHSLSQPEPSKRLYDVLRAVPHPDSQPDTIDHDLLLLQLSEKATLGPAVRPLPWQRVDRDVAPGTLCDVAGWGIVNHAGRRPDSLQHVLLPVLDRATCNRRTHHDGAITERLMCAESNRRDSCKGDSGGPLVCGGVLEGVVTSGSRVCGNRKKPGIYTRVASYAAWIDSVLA

IC50 inhibiting alternative complement in human serum (fD-dependent lysis of rabbit red blood cells): 3.3 nM
B1: anti-fD Fab with an amino acid sequence of heavy chain variable region according to SEQ ID NO: 71 and light chain variable region according to SEQ ID NO: 72 (Fab)
heavy: EVQLVQSGPELKKPGASVKVSCKASGYTFTNYGMNWVRQAPGQGLEWMGWINTYTGETTYADDFKGRFVFSLDTSVSTAYLQISSLKAEDTAVYYCERGGVNNWGQGTLVTVSSASTKGPSVFPLAPSSKSTSGGTAALGCLVKDYFPEPVTVSWNSGALTSGVHTFPAVLQSSGLYSLSSVVTVPSSSLGTQTYICNVNHKPSNTKVDKKVEPKSCDKTHT
light: DIQVTQSPSSLSASVGDRVTITCITSTDIDDDMNWYQQKPGKVPKLLISGGNTLRPGVPSRFSGSGSGTDFTLTISSLQPEDVATYYCLQSDSLPYTFGQGTKVEIKRTVAAPSVFIFPPSDEQLKSGTASVVCLLNNFYPREAKVQWKVDNALQSGNSQESVTEQDSKDSTYSLSSTLTLSKADYEKHKVYACEVTHQGLSSPVTKSFNRGEC
